Experimental data from paper PMC3098852.

Legend:
[1] = target: HIV-1 NefSF2 wild type, full length (1-210), C210A (HIV-1 SF2) (UniProt P03407); assay: ITC
[2] = target: HIV-1 NefSF2 (Δ1-27), C210A (HIV-1 SF2) (UniProt P03407); assay: ITC
[3] = target: HIV-1 NefSF2 (Δ1-44), C210A (HIV-1 SF2) (UniProt P03407); assay: ITC
[4] = target: HIV-1 NefSF2 (Δ1-58), C210A (HIV-1 SF2) (UniProt P03407); assay: ITC
[5] = target: HIV-1 NefSF2 mutant (P76A, P79A, R81A), C210A (HIV-1 SF2) (UniProt P03407); assay: ITC; Nef (40 to 50 µM) in the cell, inhibitor protein (400 to 500 µM) in the syringe; 10 mM Tris/HCl pH 8.0, 100 mM NaCl; 25 °C
[6] = target: HIV-1 NefSF2 wild type, full length (1-210), C210A (HIV-1 SF2) (UniProt P03407); assay: ITC; Nef (40 to 50 µM) in the cell, GST-fused inhibitor protein (400 to 500 µM) in the syringe; 10 mM Tris/HCl pH 8.0, 100 mM NaCl; 15 °C
[7] = target: fluorescence-labelled NI3-3 (human) (UniProt P01730); assay: other fluorescence titration
[8] = target: GST-NI3-9, Hck-SH3 (VSWSPD) - polyGly linker - CD4 cytoplasmic tail (human) (UniProt P08631); assay: SPR; GST-NI3-9 held on a CM5 chip via an anti-GST antibody; hexa-histidine tagged Nef 400-1000 nM flowed at 5 µl/min; 10 mM HEPES pH 8.0, 150 mM NaCl, 0.005% IGEPAL; 25 °C

Substance: GST-NI3-13, Hck-SH3 (VSWSPD) - linker - CD4 cytoplasmic tail truncated before the cysteines (from UniProt P08631-1 79-138; P01730 419-458) (designed binder)
- Kd [1]: 41 nM
- dH [1]: -7.04 kcal/mol
- stoichiometry N [1]: 0.98
- Kd [2]: 51 nM
- dH [2]: -12.2 kcal/mol
- stoichiometry N [2]: 1
- Kd [3]: 96 nM
- dH [3]: -16.1 kcal/mol
- stoichiometry N [3]: 1.06
- Kd [4]: 149 nM
- dH [4]: -13.8 kcal/mol
- stoichiometry N [4]: 0.98

Substance: GST-NI3-10, Hck-SH3 (VSWSPD) - linker - CD4 cytoplasmic tail with the two cysteines mutated (from UniProt P08631-1 78-138; P01730 419-458) (designed binder)
- Kd [1]: 27 nM
- dH [1]: -11.5 kcal/mol
- stoichiometry N [1]: 1.03

Substance: GST-NI3-1, CD4 cytoplasmic tail (37 residues) - five residue linker - Hck-SH3 (VSWSPD) (from UniProt P01730 419-458; P08631-1 78-138) (designed binder)
- Kd [1]: 84 nM
- dH [1]: -8.51 kcal/mol
- stoichiometry N [1]: 1.09

Substance: GST-NI3-5, wild type CD4 sequence attached with a glycine-serine-rich linker of 12 residues to Hck-SH3 (VSWSPD) (from UniProt P01730 419-458; P08631-1 78-138) (designed binder)
- Kd [1]: 64 nM
- dH [1]: -8.22 kcal/mol
- stoichiometry N [1]: 1.06

Substance: GST-NI3-4, CD4 cytoplasmic tail (dileucine LL to AA) fused to Hck-SH3 (VSWSPD) (from UniProt P01730 419-458; P08631-1 78-138) (designed binder)
- Kd [1]: 544 nM
- dH [1]: -8.55 kcal/mol
- stoichiometry N [1]: 0.97

Substance: GST-NI3-8, CD4 cytoplasmic tail shortened to 23 residues fused N-terminally to Hck-SH3 (VSWSPD) (from UniProt P01730 419-458; P08631-1 78-138) (designed binder)
- Kd [1]: 107 nM
- dH [1]: -8.2 kcal/mol
- stoichiometry N [1]: 0.93

Substance: GST-NI3-9, Hck-SH3 (VSWSPD) - polyGly linker - CD4 cytoplasmic tail (from UniProt P08631-1;P01730) (designed binder)
- Kd [5]: 1170 nM
- dH [5]: -4.1 kcal/mol
- stoichiometry N [5]: 0.85
- Kd [6]: 26 nM
- dH [6]: -11.4 kcal/mol
- stoichiometry N [6]: 0.97

Substance: GST-NI3-3, CD4 cytoplasmic tail (CQC to SQS) fused to Hck-SH3 (VSWSPD) (from UniProt P01730 419-458; P08631-1 78-138) (designed binder)
- Kd [1]: 88 nM
- dH [1]: -8.64 kcal/mol
- stoichiometry N [1]: 1.12

Substance: HIV-1 NefSF2 wild type, full length (1-210), C210A (from UniProt P03407) (natural protein)
- Kd [7]: 37 nM

Substance: HIV-1 NefSF2 (Δ1-44), C210A (from UniProt P03407 45-210) (domain or fragment)
- Kd [8]: 28 nM
